Measured values reported in patent US20130142788A1 (published 2013).
Where a chain is given by its changes, count along the chain named. Numbers in names are those of the source. Like-named read-outs stand apart in the source and are kept apart here.

B1: H2L2-C91S_F100G_Y (antibody, IgG1)
heavy: not shown
light: DIQMTQSPSSLSASVGDRVTITCKASQDINSYLSWFQQKPGKAPKSLIYRANRLVDGVPSKFSGSGSGTDYTLTISSLQPEDFATYYCLQSDEFPLTFGQGTKLEIKRTVAAPSVFIFPPSDEQLKSGTASVVCLLNNFYPREAKVQWKVDNALQSGNSQESVTEQDSKDSTYSLSSTLTLSKADYEKHKVYACEVTHQGLSSPVTKSFNRGEC
notes: wild type IgG1 Fc
B2: H2L2-C91S_F100G_Y Fc Disabled (antibody, human IgG1, kappa)
heavy: QVQLVQSGAEVKKPGASVKVSCKASGYSFTGYFMHWVRQAPGQGLEWMGNIYPYNGVSNYNQRFKARVTMTTDTSTSTAYMELRSLRSDDTAVYYCARRYYYGTGPADWYYDVWGQGTLVTVSSASTKGPSVFPLAPSSKSTSGGTAALGCLVKDYFPEPVTVSWNSGALTSGVHTFPAVLQSSGSLSSVVTVPSSSLGTQTYICNVNHKPSNTKVDKKVEPKSCDKTHTCPPCPAPELAGAPSVFLFPPKPKDTLMISRTPEVTCVVVDVSHEDPEVKFNWYVDGVEVHNAKTKPREEQYNSYVVSVLTVLHQDWLNGKEYKCKVSNKALPAPIEKTISKAKGQPREPQVYTLPPSRDELTKNQVSLTCLVKGFYPSDIAVEWESNGQPENNYKTTPPVLDSDGSFFKKLTVDKSRWQQGNVFSCSVMHEALHNHYTQKSLSLSPGK
light: B1 light
B3: H2L2 C91S_G55S F100G_Y (antibody)
heavy: not shown
light: B1 light
notes: Fc not disabled
B4: H2L2 C91S_G55S_F100G_Y-Fc disabled (antibody)
heavy: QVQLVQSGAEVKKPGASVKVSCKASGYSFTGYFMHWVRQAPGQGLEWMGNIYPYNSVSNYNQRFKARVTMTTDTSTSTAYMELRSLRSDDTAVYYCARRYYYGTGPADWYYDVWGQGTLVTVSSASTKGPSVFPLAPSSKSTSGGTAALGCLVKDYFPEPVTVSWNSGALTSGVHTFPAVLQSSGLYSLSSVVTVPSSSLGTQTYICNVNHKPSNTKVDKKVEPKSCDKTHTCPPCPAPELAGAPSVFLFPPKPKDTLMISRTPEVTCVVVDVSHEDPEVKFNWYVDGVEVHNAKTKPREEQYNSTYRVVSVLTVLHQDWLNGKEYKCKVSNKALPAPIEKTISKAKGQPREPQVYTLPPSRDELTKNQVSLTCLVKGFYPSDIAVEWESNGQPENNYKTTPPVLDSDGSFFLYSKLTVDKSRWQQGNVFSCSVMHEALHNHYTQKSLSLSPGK
light: B1 light
notes: Fc disabled (L235A, G237A, EU); Light chain L2-C91S by the name; not restated for the disabled form
B5: H2L2-C91S (antibody, IgG1, V domains shown)
VH: QVQLVQSGAEVKKPGASVKVSCKASGYSFTGYFMHWVRQAPGQGLEWMGNIYPYNGVSNYNQRFKARVTMTTDTSTSTAYMELRSLRSDDTAVYYCARRYYYGTGPADWYFDVWGQGTLVTVSS
VL: DIQMTQSPSSLSASVGDRVTITCKASQDINSYLSWFQQKPGKAPKSLIYRANRLVDGVPSKFSGSGSGTDYTLTISSLQPEDFATYYCLQSDEFPLTFGQGTKLEIKR
B6: H2L2-C91S_V102S (antibody, V domains shown)
VH: B5 VH with V113S
VL: B5 VL

Experiments:
[1] = target: T1, recombinant mature dimeric myostatin (human and mouse (mature sequences 100% …, UniProt O08689 268-376)); assay: myostatin competition ELISA, biotinylated myostatin on streptavidin, competitor 10B3
T1 construct: also called GDF-8; mature myostatin
T1 sequence: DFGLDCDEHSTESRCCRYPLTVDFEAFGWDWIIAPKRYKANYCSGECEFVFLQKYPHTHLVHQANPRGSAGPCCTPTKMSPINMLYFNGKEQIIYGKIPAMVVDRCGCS
Experimental: The protocol set out in 5.7 was used but the plates were initially coated at 4° C. overnight with 5 μg/ml of streptavidin. Biotinylated myostatin was added at 0.3 μg/ml block buffer during 1 hour followed by 3-times in wash buffer. 10B3 (final concentration of 0.2 μg/ml) was added into each well and mixed with antibodies titrated out to a suitable concentration range (approximately 10 to 0.01 μg/ml). An anti-mouse HRP-conjugated antibody (DAKO P0260, used according to the manufacturer's instructions) was used to detect binding of the 10B3 antibody.

[2] = target: T1, recombinant mature dimeric myostatin; assay: cell-based or functional assay
[3] = target: T1, recombinant mature dimeric myostatin; assay: myostatin competition ELISA, polyclonal Ab capture of myostatin, competitor 10B3
Experimental: (§1) A 96-well ELISA plate was coated at 4° C. overnight with 2.5 μg/ml polyclonal Antibody to Myostatin (R&D Systems AF788). This plate was then washed 3-times in wash buffer (PBS, 0.1% Tween-20) and blocked for 1 hour at room temperature with block solution (PBS, 0.1% Tween-20+1% bovine serum albumin [BSA]). Then, myostatin was added at 1 μg/ml in block buffer during 1 hour followed by 3-times in wash buffer. Antibodies were then titrated out to a suitable concentration range (approximately 10 to 0.01 μg/ml), added to the plate and incubated for 1 hour at room temperature. The plate was then washed 3-times in wash buffer. An anti-human kappa light chain HRP-conjugated antibody (Sigma A7164, used according to the manufacturer's instructions) was used to detect binding of humanized or chimeric antibodies, such as 10B3 chimera (HcLc) or H0L0. The plate was then washed 3-times in wash buffer and developed with an OPD substrate (according to the manufacturer's instructions) and read at 490 nm on a plate reader.
The protocol set out in 5.7 was used with the addition of 10B3 (final concentration of […]) to each well and mixed with the antibodies titrated out to a suitable concentration range (approximately 10 to 0.01 μg/ml). An anti-mouse HRP-conjugated antibody (DAKO P0260, used according to the manufacturer's instructions) was used to detect binding of the 10B3 antibody.

[4] = target: T1, recombinant mature dimeric myostatin; assay: myostatin competition ELISA, direct capture of myostatin, competitor 10B3
Experimental: as §1
The protocol set out in 5.7 was used but the plates were initially coated at 4° C. overnight with 0.2 μg/ml of myostatin (recombinant in-house, see 1.1 above). 10B3 (final concentration of 0.3 μg/ml) was added into each well and mixed with antibodies titrated out to a suitable concentration range (approximately 10 to 0.01 μg/ml). An anti-mouse HRP-conjugated antibody (DAKO P0260, used according to the manufacturer's instructions) was used to detect binding of the 10B3 antibody.

[5] = target: T1, recombinant mature dimeric myostatin; assay: Kinexa solution phase affinity
Experimental: Kinexa (Sapidyne Instruments) solution phase affinity was used to determine the overall affinity for a range of anti-myostatin molecules. Myostatin beads were prepared either by adsorption (polymethylmethacrylate beads-PMMA) or amine coupling (NHS-activated sepharose beads). The range of anti-myostatin molecules studied necessitated the generation of beads coated with different concentrations of myostatin. For the solution phase portion of the assay, a fixed concentration of antibody was incubated with a broad range of myostatin concentrations and allowed to reach equilibrium by incubation at r.t. for at least 2 h before analysis proceeded. The myostatin beads were then used to determine the amount of free antibody present in the solution phase samples, by means of the free antibody binding to the myostatin bead matrix then detected using an appropriate secondary antibody (either anti-human or anti-mouse depending on the construct being tested) labelled with a fluorescent dye. The binding curves where fitted using the Kinexa Pro analysis software inherent to the machine. Multiple runs using varying starting concentrations of antibody were then compiled and analysed using the n-curve analysis software to give a more accurate determination of affinity.

[6] = target: T1, recombinant mature dimeric myostatin; assay: ActRIIb neutralisation ELISA: inhibition of 2 nM biotinylated myostatin binding to coated ActRIIb
Experimental: Recombinant soluble ActRIIb (R&D Systems 339-RBB) was coated in wells of an ELISA plate at 1 μg/ml in carbonate buffer overnight at 4° C. Plates were blocked with PBS containing 0.1% tween 20 and 0.1% BSA and washed following standard ELISA protocols. In parallel, 2 nM biotinylated myostatin (in-house reagent, described above) was pre-incubated with a dilution series of the antibodies of Tables 21 and 22 for 30 minutes at 37° C. The biotinylated myostatin:antibody reactions were then added (50 μl/well) to the ActRIIb coated plate for 1 hour at 37° C. Standard wash procedures were followed prior to addition of 50 μl per well of a 1:200 diluted streptavidin-HRP conjugate (R&D Systems. #890803) followed by a further 37° C. incubation for 1 hour. Plates were again washed and assayed at absorbance 490 nm following substrate (R&D Systems, #DY999) and acid stop solution treatment.

[7] = target: T1, recombinant mature dimeric myostatin; assay: cell-based or functional assay; remark: listed apart in the source
[8] = target: T1, recombinant mature dimeric myostatin; assay: cell-based or functional assay; remark: listed apart in the source
[9] = target: T1, recombinant mature dimeric myostatin; assay: cell-based or functional assay; remark: listed apart in the source
[10] = target: T1, recombinant mature dimeric myostatin; assay: ActRIIb receptor binding assay: inhibition of biotinylated myostatin binding to coated ActRIIb
Experimental: Recombinant soluble ActRIIb (R&D Systems 339-RBB) was coated in wells of an ELISA plate at 1 μg/ml in carbonate buffer overnight at 4° C. Plates were blocked (see Block solution above at 2.3) and washed following standard ELISA protocols. In parallel, 2 nM biotinylated myostatin (in-house, as described in 1.1, biotinylated material) was pre-incubated with an antibody dilution series consisting of 10B3, 10B3C, and a negative control (IgG1 isotype control) for 2 hours at 37° C. The biotinylated myostatin:antibody reactions were then added to the ActRIIb coated plate for 1 hour at 37° C. Standard wash procedures were followed prior to addition of 1:1000 diluted streptavidin-HRP conjugate (Dako P0397) and a further 37° C. incubation for 1 hour. Plates were again washed and assayed at absorbance 490 nm following OPD substrate (Sigma) and acid stop solution treatment. Inhibition curves and IC50 values for the inhibition of myostatin activity are shown in FIG. 5 and Table 8 respectively.

Binder | rank among the five most potent, top (1) to bottom (5) [1] [rank] | Mean IC50, A204 in vitro activity assay [2] [nM] | rank among the five most potent, top (1) to bottom (5) [3] [rank] | rank among the five most potent, top (1) to bottom (5) [4] [rank] | Mean IC50, A204 in vitro activity assay [8] [nM] | Mean IC50, A204 in vitro activity assay [9] [nM] | IC50 [10] [nM] | also measured
B1 | 2 | 11.1 | 4 | 2 | 3.64 |  |  | Kd [5]: 3.68 nM; IC50 [6]: 1.25 nM; IC50, myostatin responsive reporter gene neutralisation assay (A204) [7]: 23 nM
B2 |  |  |  |  |  | 1.24 |  | 
B3 |  | 4.42 |  |  |  |  | 0.786 | 
B4 |  |  |  |  |  |  | 0.518 | 
B5 |  |  |  |  | 5.14 | 4.08 |  | 
B6 | 1 |  | 3 | 4 | 4.22 |  |  | 
